Two proteins from paper PMC9199185, “The Importance of the C-Terminal Cys Pair of Phosphoribulokinase in Phototrophs in Thioredoxin-Dependent Regulation” (Plant and Cell Physiology, 2022) can be followed below.

In general, Km refers to the concentration of substrate that gives half-maximal velocity. The Vmax is the rate approached at saturating substrate.

Substrate in data set [1]: Nc1ncnc2c1ncn2[C@@H]1O[C@H](COP(=O)(O)OP(=O)(O)OP(=O)(O)O)[C@@H](O)[C@H]1O
The experiment in a line: purified protein. It is filed as biochemical, Arabidopsis thaliana. The note with it: reduced form (pretreated with 50 mM DTTred), ATP varied 0-2 mM, 2 mM ribose 5-phosphate plus ribose 5-phosphate isomerase, 10 mM MgCl2, 100 mM KCl, pH 7.5, 25 °C.

Substrate in data set [2]: Nc1ncnc2c1ncn2[C@@H]1O[C@H](COP(=O)(O)OP(=O)(O)OP(=O)(O)O)[C@@H](O)[C@H]1O
The data set can be described thus: purified protein. It is filed as biochemical, Nostoc sp. PCC 7120 = FACHB-418. The following applies: reduced form (pretreated with 50 mM DTTred), ATP varied 0-2 mM, 2 mM ribose 5-phosphate plus ribose 5-phosphate isomerase, 10 mM MgCl2, 100 mM KCl, pH 7.5, 30 °C.

B1: AtPRK (Arabidopsis thaliana) (protein)
chain: AQETIVIGLAADSGCGKSTFMRRLTSVFGGAAKPPKGGNPDSNTLISDTTTVICLDDYHSLDRYGRKEQKVTALDPRANDFDLMYEQVKALKNGIAVEKPIYNHVTGLLDPPELIQPPKILVIEGLHPMFDERVRDLLDFSIYLDISNEVKFAWKIQRDMAERGHSLESIKASIEARKPDFDAFIDPQKQYADAVIEVLPTTLIPDDNEGKVLRVRLIMKEGVKYFSPVYLFDEGSTISWIPCGRKLTCSYPGIKFNYEPDSYFDHEVSVLEMDGQFDRLDELIYVESHLSNLSTKFYGEVTQQMLKHADFPGSNNGTGLFQTIVGLKIRDLYEQLIANKATARAEAKA
notes: recombinant in E. coli BL21(DE3), pET-21a; no tag stated; dimer, calculated 79,000
For B1, in data set [1], the Km was 46.5 ± 6.5 µM and the Vmax turned out to be 289 µmol/min/mg.

B2: A.7120_PRK (Nostoc sp. PCC 7120 = FACHB-418) (protein)
chain: MTTKPERVVLIGVAGDSGCGKSTFLRRLIDLFGEEFMTVICLDDYHSLDRKQRKETGITALDPRANNFDLMYEQIKALKEGQTINKPIYNHETGLIDPPEIVKPNHIVVVEGLHPLYDERVRSLLDFSVYFDISDEVKIAWKIQRDMAERGHRYEDVLAAINSRKPDFQKYIEPQREFADVVLQVLPTNLIKDDTERKVLRVRMLQREGKEGFEPAYLFDEGSTINWTPCGRKLTCSYPGMQLYYGSDVYYGRYVSVLEVDGQFDNLEEVIYIETHLSNTSTKYQGELTQLLLQHREYPGSNNGTGFFQVLTGLKMRAAYERLTTKEAKLAVQV
notes: recombinant in E. coli BL21(DE3), pET-21a; no tag stated; Cys pairs Cys19/Cys41 and Cys230/Cys236
As to B2, in data set [2], the Michaelis constant (Km) worked out at 109 ± 4.5 µM and the Vmax came to 214 µmol/min/mg.
